Results published in the supplement of paper PMC10567573.

B1: PPP2R2C (parent)
chain: YSSSKGSLRLCDMRAAALCDKHSK
B2: TRAF3IP2 (parent)
chain: PRPPSNPPARGTLKTSNLPEELRK

Variants of: B1
Test: protein stability index of a GFP-peptide fusion (GPS, HEK-293T) (PSI 1-6); higher = more stable
Conditions: c terminus: a fixed tail appended
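Further: lentivirally expressed fusions sorted by FACS into six bins by GFP to DsRed ratio, PSI derived from sequencing read proportions per bin multiplied by bin number.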

Variant | protein stability index
S23P | 1.42
S23E | 1.81
S23Y | 2.52
S23H | 2.96
S23D | 1.86
S23A | 1.79
C11S | 3.16
C11E | 3.85
C11A | 2.96
C11H | 3.63
C11N | 3.72
C11P | 4.05
C19H | 1.56
A15T | 2.09
A15W | 1.81
A15F | 2.4
A15K | 1.58
A15S | 2.31
A15N | 2.54
A15D | 1.72
A15C | 1.14
A15M | 2.72
A15Q | 1.77
L8A | 1.75

Variant | protein stability index
L8N | 2.36
L8Q | 1.89
L8E | 2.41
L8K | 2.17
D12L | 1.82
D12V | 2.11
D12W | 2.7
D12Y | 2.1
D12I | 1.6
D12T | 2.69
D12F | 1.52
D12H | 3.2
D12C | 1.99
S3V | 1.96
S3M | 2.84
S3W | 2.15
S3K | 2.37
A17C | 2.06
A17V | 3.45
A17M | 1.79
A17L | 1.75
A17K | 1.85
A17H | 2.29
A17P | 2.1

Variant | protein stability index
A17D | 1.51
A17W | 2.33
A17N | 3.18
A17T | 1.52
A17G | 1.61
A17S | 1.31
Y1E | 4.47
Y1C | 2.98
Y1F | 2.31
Y1G | 3.72
Y1N | 3.81
M13A | 1.52
M13Q | 1.83
M13T | 2.21
M13L | 2
M13Y | 3.27
K24V | 1.74
K24T | 2.39
K24I | 2.06
K24A | 1.85
K24N | 2.15
K24H | 1.43
K24Q | 1.64
K24Y | 1.52

Variant | protein stability index
K24D | 2.22
R9Y | 1.76
R9K | 3.11
R9E | 3.7
R9A | 2.63
R9C | 3.28
R9F | 2.37
R9S | 3.81
R9D | 4.21
R9T | 3.28
R14E | 2.3
R14K | 1.68
R14T | 1.98
R14H | 2.34
R14Q | 1.27
R14P | 1.8
R14F | 2.27
R14S | 2.02
S7H | 2.92
S7P | 1.89
S7D | 2.24
S7N | 1.65
S7Y | 1.94
S7G | 4.06

Variant | protein stability index
S4Y | 1.98
S4I | 2.06
S4V | 2.45
S4T | 1.8
S4L | 2.62
S4F | 2.27
S4W | 1.63
S4M | 2
S4H | 2.09
S4E | 2.78
K21E | 1.26
K21R | 1.69
K21H | 2.01
K21W | 2.12
K21G | 2.12
K21C | 2.48
K21L | 1.29
A16S | 2.02
A16K | 2.53
A16V | 1.82
A16H | 2.06
A16Y | 1.63
A16G | 2.55
A16T | 1.97

Variant | protein stability index
A16R | 2.04
K5R | 1.85
K5T | 2.23
K5H | 1.68
K5Y | 1.52
K5M | 2.1
K5Q | 2.12
K5W | 2.11
S2D | 3.89
S2W | 1.89
S2H | 2
L10M | 1.92
L10D | 4.23
L10V | 3.54
L10I | 2.9
L10S | 3.54
L10N | 3.67
L10A | 3.72
L10K | 3.1
G6A | 1.91
G6Q | 2.39
G6S | 1.82
G6F | 1.81
G6T | 2.07

Variant | protein stability index
G6C | 1.95
G6N | 1.94
L18C | 1.55
L18V | 2.02
L18T | 1.81
L18F | 1.69
L18S | 1.79
H22N | 2.04
H22C | 2.17
H22Q | 1.53
H22R | 1.56
H22T | 2.11
H22P | 1.16
H22G | 2.31
D20K | 2.6
D20G | 2.62
D20N | 2.21
D20L | 2.05
D20C | 1.41
D20R | 3.31

Variants of: B2
Test: as above
Conditions: c terminus: a fixed tail appended

Variant | protein stability index
E21N | 4.6
E21D | 4.71
E21A | 4.6
E21C | 4.19
E21Q | 5.04
E21L | 4.26
E21M | 3.06
E21F | 3.73
E21V | 3.74
E21R | 4.2
E21T | 4.46
E21Y | 4.23
E21W | 3.69
E21H | 3.94
E21G | 4.36
E21K | 4.26
E21I | 4.29
E21S | 3.97
E21P | 3.62
N17F | 4.42
N17C | 4.29
N17I | 4.55
N17H | 4.58
N17V | 3.94
N17Y | 4.77

Variant | protein stability index
N17S | 4.91
N17E | 5.13
N17L | 4.49
N17T | 4.21
N17K | 4.07
N17P | 5.08
N17M | 4.8
N17A | 5.05
N17W | 3.51
N17D | 5.09
N17G | 4.82
L22H | 5.11
L22V | 3.16
L22S | 4.96
L22D | 5.22
L22W | 4.25
L22A | 4.55
L22E | 5.61
L22M | 4.75
L22R | 4.82
L22I | 4.56
L22C | 5.65
L22Y | 4.47
L22K | 4.97
L22G | 4.15

Variant | protein stability index
L22Q | 5.39
L22T | 5.4
L22P | 5.15
L22F | 4.24
L22N | 4.93
P19Y | 3.54
P19L | 4.43
P19N | 4.83
P19K | 4.59
P19F | 4.28
P19W | 3.98
P19D | 4.89
P19R | 4.14
P19Q | 4.75
P19V | 4.09
P19E | 5.1
P19T | 4.14
P19A | 4.48
P19G | 4.36
P19I | 4
P19H | 3.36
P19C | 4.7
P19M | 4.47
P19S | 4.75
S16H | 4.33

Variant | protein stability index
S16M | 4.7
S16A | 4.41
S16R | 4.79
S16N | 4.37
S16E | 4.95
S16G | 4.79
S16T | 4.92
S16I | 4.49
S16Y | 4.48
S16W | 3.47
S16K | 4.74
S16V | 4.17
S16C | 4.19
S16F | 4.47
S16L | 4.75
S16D | 4.83
S16Q | 4.48
T15S | 4.79
T15R | 4.52
T15W | 3.67
T15V | 4.48
T15Y | 4.64
L18A | 4.92
L18H | 4.8
L18V | 5.06

Variant | protein stability index
L18R | 4.56
L18S | 5.62
L18N | 4.71
L18K | 5.26
L18G | 4.96
L18I | 4.38
L18M | 4.5
L18T | 4.96
L18Q | 5.08
L18Y | 5.14
L18D | 4.67
L18W | 4.2
L18F | 4.72
R23I | 4.39
R23E | 4.94
R23M | 4.31
R23F | 3.92
R23T | 4.77
R23K | 4.92
R23G | 4.7
R23A | 4.7
R23Q | 5.23
R23L | 4.19
R23C | 4.64
R23Y | 4.47

Variant | protein stability index
R23V | 4.13
R23W | 3.42
R23H | 4.7
R23N | 5.2
R23S | 5.16
R23D | 4.9
R23P | 5.21
K24L | 4.31
K24M | 4.26
K24G | 4.05
K24S | 4.7
K24F | 4.33
K24D | 5.14
K24N | 4.87
K24I | 4.24
K24E | 4.99
K24Y | 3.78
K24A | 4.86
K24R | 4.75
K24Q | 4.66
K24V | 4.53
K24P | 3.9
K24C | 4.9
K24H | 4.79
K24T | 4.8

Variant | protein stability index
K24W | 4.19
E20C | 4.44
E20V | 3.41
E20K | 4.2
E20I | 3.44
E20M | 4.14
E20L | 4.1
E20P | 4.21
E20G | 5.51
E20F | 4.06
E20H | 3.96
E20Q | 4.67
E20R | 4.48
E20S | 4.52
E20T | 4.25
E20Y | 3.95
E20A | 4.41
E20N | 4.61
E20D | 4.81
E20W | 4
